The results in this text go back to article doi:10.1101/2021.10.20.465166.

Some targets named below: C/EBPα p30 (UniProt P49715-3 1-239); C/EBPα p42 (full length) (UniProt P49715 1-358); C/EBPα bZIP domain (UniProt P49715 282-345).
Common to all, as to experiment: EMSA
On the technique in general: In EMSA bound probe runs differently from free probe, usually more slowly.

C/EBPα p30, sequence (P49715 120-358): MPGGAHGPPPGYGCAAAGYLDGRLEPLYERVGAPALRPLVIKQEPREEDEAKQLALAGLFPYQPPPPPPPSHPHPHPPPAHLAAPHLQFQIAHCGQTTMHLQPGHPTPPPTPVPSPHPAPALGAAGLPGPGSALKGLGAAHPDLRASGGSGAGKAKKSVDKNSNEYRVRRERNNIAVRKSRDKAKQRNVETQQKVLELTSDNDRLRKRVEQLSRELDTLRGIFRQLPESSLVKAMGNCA
C/EBPα p42 (full length), sequence (P49715 whole entry, the tested form may be a part): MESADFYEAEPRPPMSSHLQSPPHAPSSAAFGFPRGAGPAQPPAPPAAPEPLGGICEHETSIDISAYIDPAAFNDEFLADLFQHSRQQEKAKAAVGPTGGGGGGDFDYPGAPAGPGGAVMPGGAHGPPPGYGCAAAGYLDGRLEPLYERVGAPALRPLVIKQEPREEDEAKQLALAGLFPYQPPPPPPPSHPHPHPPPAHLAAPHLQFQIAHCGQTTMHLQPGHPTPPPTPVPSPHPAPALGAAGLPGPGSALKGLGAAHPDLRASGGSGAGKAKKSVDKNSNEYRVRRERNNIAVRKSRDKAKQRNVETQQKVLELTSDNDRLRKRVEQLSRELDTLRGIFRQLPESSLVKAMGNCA
C/EBPα bZIP domain, sequence (P49715 282-345): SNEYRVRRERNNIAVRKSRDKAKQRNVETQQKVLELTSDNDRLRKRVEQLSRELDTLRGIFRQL

For UUCCCACUCACCCAGCACCC (ssRNA) [CTBP1 intron 2 RNA (CTBP1i2)], the binding result in the data set with C/EBPα p30 is recorded as “binds”; with C/EBPα p42 (full length) it was “binds”; in the data set with C/EBPα bZIP domain, “no binding”.
Regarding CCCCCACCCAGCCAGGCCAAC (ssRNA) [PU.1 intron 4 RNA (PU.1i4)], the figures for the binding result with C/EBPα p30, in the data set with C/EBPα p42 (full length) and with C/EBPα bZIP domain were “binds”, “binds” and “no binding”, respectively.
Consider GGGACCCGGUUCCCACUCACCCAGC (structured_RNA) [CTBP1 intron 2 negative RNA (CTBP1i2N)], for which the binding result with C/EBPα p30 and in the data set with C/EBPα p42 (full length) was “no binding” each time.
